Test results reported in patent publication US20030162942A1 (DYAX, published 2003).

B1: CMTI-I analogue 120, phage isolate (designed binder)
chain: RWCPKTSLECMKDSDCLAECVCLEHGYCGAGPSYIEGRIVGSA
notes: not shown: mature gene III protein of M13 phage
B2: CMTI-I analogue 235, phage isolate (designed binder)
chain: RWCPKSTLGCMKDSDCLAECVCLEHGYCGAGPSYIEGRIVGSA
notes: as for B1
B3: CMTI-I analogue 110, phage isolate (designed binder)
chain: RWCPKSSMGCKKDSDCLAECVCLEHGYCGAGPSYIEGRIVGSA
notes: as for B1
B4: CMTI-I analogue 101, phage isolate (designed binder)
chain: RWCPKTSLGCMKDSDCLAECVCLEHGYCGAGPSYIEGRIVGSA
notes: as for B1
B5: CMTI-I analogue 223, phage isolate (designed binder)
chain: RWCPKYTLECMKDSDCLAECVCLEHGYCGAGPSYIEGRIVGSA
notes: as for B1
B6: CMTI-I analogue 113, phage isolate (designed binder)
chain: RLCPKTDLGCMKDSDCLAECVCLEHGYCGAGPSYIEGRIVGSA
notes: as for B1
B7: CMTI-I analogue 221, phage isolate (designed binder)
chain: RWCPKSTLGCMKDSDCLAECVCLEHGYCGAGPSYIEGRIVGSA
notes: as for B1
B8: CMTI-I analogue 224, phage isolate (designed binder)
chain: RWCPRSSLECMKDSDCLAECVCLEHGYCGAGPSYIEGRIVGSA
notes: as for B1
B9: CMTI-I analogue 112, phage isolate (designed binder)
chain: RWCPTAPLECMKDSDCLAECVCLEHGYCGAGPSYIEGRIVGSA
notes: as for B1
B10: CMTI-I analogue 237, phage isolate (designed binder)
chain: RWCPRSNLECMKDSDCLAECVCLEHGYCGAGPSYIEGRIVGSA
notes: as for B1
B11: CMTI-I analogue 117, phage isolate (designed binder)
chain: RWCPKTSLGCMKDSDCLAECVCLEHGYCGAGPSYIEGRIVGSA
notes: as for B1
B12: CMTI-I analogue 107, phage isolate (designed binder)
chain: RLCPKTSLECMKDSDCLAECVCLEHGYCGAGPSYIEGRIVGSA
notes: as for B1
B13: CMTI-I analogue 111, phage isolate (designed binder)
chain: RWCPRTVQECMKDSDCLAECVCLEHGYCGAGPSYIEGRIVGSA
notes: as for B1
B14: CMTI-I analogue 103, phage isolate (designed binder)
chain: RWCSTYSLGCMKDSDCLAECVCLEHGYCGAGPSYIEGRIVGSA
notes: as for B1
B15: CMTI-I analogue 104, phage isolate (designed binder)
chain: RWCSTYSLGCMKDSDCLAECVCLEHGYCGAGPSYIEGRIVGSA
notes: as for B1
B16: CMTI-I analogue 115, phage isolate (designed binder)
chain: RWCTKTSRECMKDSDCLAECVCLEHGYCGAGPSYIEGRIVGSA
notes: as for B1
B17: CMTI-I analogue 222, phage isolate (designed binder)
chain: RWCPKSTLGCMKDSDCLAECVCLEHGYCGAGPSYIEGRIVGSA
notes: as for B1
B18: CMTI-I analogue 238, phage isolate (designed binder)
chain: RWCPRSNLECMKDSDCLAECVCLEHGYCGAGPSYIEGRIVGSA
notes: as for B1
B19: CMTI-I analogue 236, phage isolate (designed binder)
chain: RWCPRSSLECMKDSDCLAECVCLEHGYCGAGPSYIEGRIVGSA
notes: as for B1
B20: CMTI-I analogue 229, phage isolate (designed binder)
chain: RWCPKYTLECMKDSDCLAECVCLEHGYCGAGPSYIEGRIVGSA
notes: as for B1
B21: CMTI-I analogue 106, phage isolate (designed binder)
chain: RWCSTYSLGCMKDSDCLAECVCLEHGYCGAGPSYIEGRIVGSA
notes: as for B1
B22: CMTI-I analogue 102, phage isolate (designed binder)
chain: RLCPKTYLGCMKDSDCLAECVCLEHGYCGAGPSYIEGRIVGSA
notes: as for B1
B23: CMTI-I analogue 234, phage isolate (designed binder)
chain: RWCPRSSLECMKDSDCLAECVCLEHGYCGAGPSYIEGRIVGSA
notes: as for B1
B24: CMTI-I analogue 108, phage isolate (designed binder)
chain: RWCSKSSLECMKDSDCLAECVCLEHGYCGAGPSYIEGRIVGSA
notes: as for B1
B25: CMTI-I analogue 228, phage isolate (designed binder)
chain: RWCPKYTLECMKDSDCLAECVCLEHGYCGAGPSYIEGRIVGSA
notes: as for B1
B26: CMTI-I analogue 109, phage isolate (designed binder)
chain: RLCPKTDLGCMKDSDCLAECVCLEHGYCGAGPSYIEGRIVGSA
notes: as for B1
B27: CMTI-I analogue 119, phage isolate (designed binder)
chain: RWCPKTHKECMKDSDCLAECVCLEHGYCGAGPSYIEGRIVGSA
notes: as for B1
B28: CMTI-I analogue 232, phage isolate (designed binder)
chain: RWCPKTSLGCMKDSDCLAECVCLEHGYCGAGPSYIEGRIVGSA
notes: as for B1
B29: CMTI-I analogue 114, phage isolate (designed binder)
chain: RWCPKSALDCKKDSDCLAECVCLEHGYCGAGPSYIEGRIVGSA
notes: as for B1
B30: CMTI-I analogue 233, phage isolate (designed binder)
chain: RWCPKYTLECMKDSDCLAECVCLEHGYCGAGPSYIEGRIVGSA
notes: as for B1
B31: CMTI-I analogue 116, phage isolate (designed binder)
chain: RWCIRTDLGCMKDSDCLAECVCLEHGYCGAGPSYIEGRIVGSA
notes: as for B1
B32: CMTI-I analogue 118, phage isolate (designed binder)
chain: RWCPRTVRRCMKDSDCLAECVCLEHGYCGAGPSYIEGRIVGSA
notes: as for B1
B33: CMTI-I analogue 105, phage isolate (designed binder)
chain: RLCPKTSLECMKDSDCLAECVCLEHGYCGAGPSYIEGRIVGSA
notes: as for B1
B34: CMTI-I analogue 226, phage isolate (designed binder)
chain: RWCPRSNLECMKDSDCLAECVCLEHGYCGAGPSYIEGRIVGSA
notes: as for B1

Legend:
[1] = target: T1, recombinant human tissue-type plasminogen activator (tPA) (human, UniProt P00750 36-562); assay: phage display selection on tPA agarose beads, binding at pH 7
T1 construct: Immobilized on ReactiGel agarose beads for the phage work; Used in solution for the column tests
Experimental: For this work, tPA was purchased from CalBiochem (#612200) and immobilized on ReactiGel™ agarose beads from Pierce Chemical Company by methods described in Markland et al. (1996). Approximately 200 μg of tPA were coupled to 200 μL of ReactiGel™ slurry.
The phage libraries described were screened for binding to tPA through four rounds. In the first round, the phage libraries were mixed in separate reactions with tPA agarose beads at pH 7 in phosphate-buffered saline (PBS). Bovine serum albumin (BSA) was added at 0.1% to reduce non-specific binding. Unbound phage were washed off at pH 7, and the bound phage eluted at pH 2 for the first screen only. […] Pool A consisted of the combined outputs from the CMTI and Lib#1 libraries, and Pool B consisted of the combined outputs of the Lib#3 and Lib#5 libraries. The binding of pooled libraries was performed at pH 7, however, the first elution to remove bound phage was carried out at pH 5 and a subsequent elution at pH 2 to elute phage that are released in the pH 5-pH 2 range. This was repeated twice more for a total of 4 rounds of selection.

[2] = target: human serum protease thrombin (human, UniProt P00734 328-622); assay: phage binding to protein on beads (data not shown)
[3] = target: human serum protease plasmin (human, UniProt P00747 97-810, limits assumed); assay: phage binding to protein on beads (data not shown)
[4] = target: T1, recombinant human tissue-type …; assay: phage isolate binding to and pH release from immobilized tPA

Chain of human serum protease plasmin (P00747 97-810 limits assumed): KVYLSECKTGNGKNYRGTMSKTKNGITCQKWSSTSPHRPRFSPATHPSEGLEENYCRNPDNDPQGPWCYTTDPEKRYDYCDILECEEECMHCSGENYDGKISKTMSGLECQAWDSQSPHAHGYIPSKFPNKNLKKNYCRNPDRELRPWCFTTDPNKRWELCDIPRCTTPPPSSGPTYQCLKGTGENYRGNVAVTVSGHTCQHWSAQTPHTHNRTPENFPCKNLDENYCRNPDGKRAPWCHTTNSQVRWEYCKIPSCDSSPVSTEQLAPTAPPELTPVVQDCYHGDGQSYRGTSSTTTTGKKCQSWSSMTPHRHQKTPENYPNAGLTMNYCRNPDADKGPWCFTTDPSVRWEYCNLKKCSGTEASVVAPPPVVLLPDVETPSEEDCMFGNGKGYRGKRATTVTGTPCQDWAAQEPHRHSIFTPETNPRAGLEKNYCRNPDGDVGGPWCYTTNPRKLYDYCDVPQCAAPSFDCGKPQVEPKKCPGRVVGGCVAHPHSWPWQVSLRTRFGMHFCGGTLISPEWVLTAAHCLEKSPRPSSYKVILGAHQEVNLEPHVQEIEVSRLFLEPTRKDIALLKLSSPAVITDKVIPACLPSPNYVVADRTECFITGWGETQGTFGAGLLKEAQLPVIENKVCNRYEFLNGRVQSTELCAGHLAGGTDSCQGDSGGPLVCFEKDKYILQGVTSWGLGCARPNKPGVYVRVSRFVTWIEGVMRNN
T1 sequence (P00750 36-562 limits assumed): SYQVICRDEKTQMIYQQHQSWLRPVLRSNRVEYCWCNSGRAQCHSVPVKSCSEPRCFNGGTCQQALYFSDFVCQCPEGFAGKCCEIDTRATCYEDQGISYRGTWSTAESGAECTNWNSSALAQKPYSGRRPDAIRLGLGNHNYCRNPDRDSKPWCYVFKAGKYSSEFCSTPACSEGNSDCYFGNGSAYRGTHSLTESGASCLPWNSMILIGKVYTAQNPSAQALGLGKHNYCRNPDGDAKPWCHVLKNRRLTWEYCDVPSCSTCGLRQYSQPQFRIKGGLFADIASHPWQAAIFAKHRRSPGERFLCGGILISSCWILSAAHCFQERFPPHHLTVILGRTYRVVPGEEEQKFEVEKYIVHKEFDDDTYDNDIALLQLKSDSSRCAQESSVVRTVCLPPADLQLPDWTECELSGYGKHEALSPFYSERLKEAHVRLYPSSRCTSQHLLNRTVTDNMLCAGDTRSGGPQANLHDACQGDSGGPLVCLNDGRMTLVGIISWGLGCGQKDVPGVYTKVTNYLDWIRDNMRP

Binder	binding result [1]	binding result [2]	binding result [3]	binding result [4]
B1	binds	no binding	no binding	
B2	binds	no binding	no binding	
B3	binds	no binding	no binding	
B4	binds	no binding	no binding	
B5	binds	no binding	no binding	
B6	binds	no binding	no binding	
B7	binds	no binding	no binding	
B8	binds	no binding	no binding	
B9	binds	no binding	no binding	
B10	binds	no binding	no binding	
B11	binds	no binding	no binding	
B12		no binding	no binding	binds
B13	binds	no binding	no binding	
B14	binds	no binding	no binding	
B15	binds	no binding	no binding	
B16	binds	no binding	no binding	
B17	binds	no binding	no binding	

Binder	binding result [1]	binding result [2]	binding result [3]	binding result [4]
B18	binds	no binding	no binding	
B19	binds	no binding	no binding	
B20	binds	no binding	no binding	
B21		no binding	no binding	binds
B22	binds	no binding	no binding	
B23	binds	no binding	no binding	
B24		no binding	no binding	binds
B25	binds	no binding	no binding	
B26		no binding	no binding	binds
B27	binds	no binding	no binding	
B28	binds	no binding	no binding	
B29	binds	no binding	no binding	
B30	binds	no binding	no binding	
B31	binds	no binding	no binding	
B32	binds	no binding	no binding	
B33		no binding	no binding	binds
B34	binds	no binding	no binding	
